The record followed here is paper PMC4966837 (mAbs, 2015).

Broadly, the Kd is a measure of binding affinity in units of concentration.

The test has as its target human βc receptor on cells (TF-1 cells, human neutrophils, human eosinophils) (Homo sapiens, UniProt P32927). The experiment in a line: radioligand binding.

human βc receptor on cells (TF-1 cells, human neutrophils, human eosinophils), sequence (P32927 17-897): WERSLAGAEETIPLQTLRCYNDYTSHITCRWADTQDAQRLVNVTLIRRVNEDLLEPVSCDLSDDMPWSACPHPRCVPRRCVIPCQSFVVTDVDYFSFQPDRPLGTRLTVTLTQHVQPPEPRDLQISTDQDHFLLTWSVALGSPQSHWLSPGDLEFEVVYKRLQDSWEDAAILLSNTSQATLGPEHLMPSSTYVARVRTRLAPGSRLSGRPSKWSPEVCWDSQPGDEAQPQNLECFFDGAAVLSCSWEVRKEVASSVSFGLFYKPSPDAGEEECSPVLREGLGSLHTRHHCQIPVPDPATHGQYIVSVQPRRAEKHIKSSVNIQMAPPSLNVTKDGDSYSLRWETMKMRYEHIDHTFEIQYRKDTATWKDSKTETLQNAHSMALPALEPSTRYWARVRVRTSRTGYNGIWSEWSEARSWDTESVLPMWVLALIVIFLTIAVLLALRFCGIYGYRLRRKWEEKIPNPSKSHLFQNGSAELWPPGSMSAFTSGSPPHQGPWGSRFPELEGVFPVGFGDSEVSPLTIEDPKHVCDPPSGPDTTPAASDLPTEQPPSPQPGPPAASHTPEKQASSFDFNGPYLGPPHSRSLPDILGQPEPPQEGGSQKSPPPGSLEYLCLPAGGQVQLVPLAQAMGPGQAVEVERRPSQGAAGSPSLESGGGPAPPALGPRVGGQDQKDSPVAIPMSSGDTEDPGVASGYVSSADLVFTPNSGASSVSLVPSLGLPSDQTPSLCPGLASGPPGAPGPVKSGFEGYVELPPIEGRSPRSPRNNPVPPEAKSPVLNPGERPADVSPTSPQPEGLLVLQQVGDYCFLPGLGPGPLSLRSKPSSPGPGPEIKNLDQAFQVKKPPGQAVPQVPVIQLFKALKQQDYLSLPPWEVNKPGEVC

B1: CSL311 (human IgG4-kappa monoclonal antibody) (antibody, V domains shown)
VH: EVQLLESGGGLVQPGGSLRLSCAASGFTFPWYRVHWVRQAPGKGLEWVSSIRSSGGFPYYNYKVKGRFTISRDNSKNTLYLQMNSLRAEDTAVYYCARFYDSFFDIWGQGTMVTVSS
VL: DIQMTQSPSSVSASVGDRVTITCRASQGISSWLAWYQQKPGKAPKLLIYAASSLQSGVPSRFSGSGSGTDFTLTISSLQPEDFATYYCQQANSFPITFGQGTRLEIK
As for B1, the Kd was 0.25 to 0.73 nM.

B2: CSL311 Fab fragment (Fab, V domains shown)
VH: B1 VH
VL: B1 VL
B2 showed a dissociation constant Kd of 0.38 to 0.67 nM.
